Substitutions are numbered along the chain they refer to. Like-named read-outs stand apart in the source and are kept apart here.
B1: biotinylated EIIIB (protein fragment of fibronectin splice variant EIIIB) (domain or fragment)
chain: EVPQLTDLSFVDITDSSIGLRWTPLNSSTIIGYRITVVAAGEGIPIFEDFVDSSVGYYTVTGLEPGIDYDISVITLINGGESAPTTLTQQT
modifications: biotin (ChromaLink NHS-biotin reagent)
B2: NJB2-IL2 (NJB2 nanobody fused to murine IL-2) (VHH)
VHH: QVQLVETGGGLVQAGGSLRLSCAASGSTFSHNAGGWYRQAPEKQRELVAGISSDGNINYADSVKDRFTISRDNASNTMYLQMNNLKPEDTAVYVCNIRGSYGNTYYSRWGQGTQVTVSS
B3: LMJ1.2C nanobody, biotin-tagged (VHH)
VHH: B2 VHH with N32S, S52R
modifications: biotin at the C-terminus via sortase-mediated tagging (nucleophile GGGK-Biotin)
B4: LMJ2.5I-IL2 (LMJ2.5I nanobody fused to murine IL-2) (VHH)
VHH: B2 VHH with Q1R, A24V, N32S, S52R, T113A
B5: LMJ2.5I nanobody, biotin-tagged (VHH)
VHH: B2 VHH with Q1R, A24V, N32S, S52R, T113A
modifications: biotin at the C-terminus via sortase-mediated tagging (nucleophile GGGK-Biotin)
B6: NJB2-IL2-mt (NJB2 fused to murine IL-2 bearing point mutations that abrogate cytokine activity) (VHH)
VHH: B2 VHH
B7: LMJ1.2C-IL2 (LMJ1.2C nanobody fused to murine IL-2) (VHH)
VHH: B2 VHH with N32S, S52R

Legend:
Assay in all cases: BLI
LMJ2.5C = molecular target: LMJ2.5C
Chain of LMJ2.5C (P02751 1266-1356): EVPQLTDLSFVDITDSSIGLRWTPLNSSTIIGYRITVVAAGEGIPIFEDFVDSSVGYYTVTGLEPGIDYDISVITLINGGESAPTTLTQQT

LMJ2.5J = molecular target: LMJ2.5J
Chain of LMJ2.5J (P02751 1266-1356): as above

LMJ2.5G = molecular target: LMJ2.5G
Chain of LMJ2.5G (P02751 1266-1356): as above

LMJ1.3J = molecular target: LMJ1.3J
Chain of LMJ1.3J (P02751 1266-1356): as above

LMJ1.2G = molecular target: LMJ1.2G
Chain of LMJ1.2G (P02751 1266-1356): as above

LMJ2.4C = molecular target: LMJ2.4C
Chain of LMJ2.4C (P02751 1266-1356): as above

LMJ2.5H = molecular target: LMJ2.5H
Chain of LMJ2.5H (P02751 1266-1356): as above

LMJ2.6A = molecular target: LMJ2.6A
Chain of LMJ2.6A (P02751 1266-1356): as above

NJB2 = molecular target: NJB2
Chain of NJB2 (P02751 1266-1356): as above

[1] = molecular target: B1
[2] = molecular target: B1; remark: listed apart in the source
[3] = molecular target: B1; remark: listed apart in the source
[4] = molecular target: B1; remark: listed apart in the source

Binder: B1
- Kd (LMJ2.5C): 0.0785 nM
- koff (LMJ2.5C): 3.52e-05 s⁻¹
- Kd (LMJ2.5J): 0.0622 nM
- koff (LMJ2.5J): 4.45e-05 s⁻¹
- Kd (LMJ2.5G): 0.166 nM
- koff (LMJ2.5G): 9.13e-05 s⁻¹
- Kd (LMJ1.3J): 0.402 nM
- koff (LMJ1.3J): 0.000305 s⁻¹
- Kd (LMJ1.2G): 0.973 nM
- koff (LMJ1.2G): 0.000475 s⁻¹
- Kd (LMJ2.4C): 0.0626 nM
- koff (LMJ2.4C): 4.8e-05 s⁻¹
- Kd (LMJ2.5H): 0.227 nM
- koff (LMJ2.5H): 0.000136 s⁻¹
- Kd (LMJ2.6A): 0.344 nM
- koff (LMJ2.6A): 7.47e-05 s⁻¹
- Kd (NJB2): 1.82 nM
- koff (NJB2): 0.00104 s⁻¹

Binder: B2
- Kd [1]: 0.996 nM
- Kd [2]: 1.1 nM
- koff [3]: 0.000289 s⁻¹

Binder: B3
- koff [4]: 0.00015 s⁻¹

Binder: B4
- Kd [1]: < 0.001 nM
- koff [3]: < 1e-07 s⁻¹

Binder: B5
- koff [4]: 2.49e-05 s⁻¹

Binder: B6
- Kd [2]: 1.6 nM

Binder: B7
- Kd [1]: 0.0144 nM
- koff [3]: 5.06e-06 s⁻¹

From paper PMC9802395 (2022)
